Results taken from the supplement of paper PMC12636428.

Each sequence was assayed on Saccharomyces cerevisiae (assay: transcriptional activation domain activity (GFP:mCherry ratio, weighted mean of sorted bins, harmonized to initial dataset scale) (arbitrary fluorescence ratio units); higher = stronger transcriptional activation). Conditions: beta-estradiol 1 µM; induction time 4 h.
How it was run: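 The listed activation activity is a read-weighted mean of bin median fluorescence, averaged across barcodes and linearly mapped onto the initial dataset scale. Barcoded tiles, fused to an estradiol-inducible synthetic transcription factor, were integrated at URA3 in yeast diploids bearing a GFP reporter. Cells were held 4 hours at 30 °C in SC with 1 uM beta-estradiol, sorted into 8 GFP:mCherry bins, and sequenced, and tiles with fewer than 50 reads were excluded.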
With “RSSRRDRDEDENERHSRHRRENRRRSHSSDERHGDARRRDEKSRHHRSSRHER” the “transcriptional activation domain activity” value was 17900. With “RSSRSKRRSRSPHDSSHKRRSRKEGRRPPSRERDEEDGEKRRHRSSRSHRRRR” the “transcriptional activation domain activity” value was 11400. For “RSSSGKDRDRERDGGRDRNGKSSSSSRRREKERDEDSGDERRKSSSSSRRRRD”, the “transcriptional activation domain activity” value was 44400. In the case of “RSSSKKKDASDDEDKHSRRKSSSRKKGSDEEDDKSRHSRSASASKKKDKKSYD”, the “transcriptional activation domain activity” value is reported as 14300. “RSSVGAYIKPKQQVVAVPCVGPHDSGINVLYLCAPSVEEVVMLTRFVILHLGG” was tested, and the “transcriptional activation domain activity” value was 55500. “RSTMKIVEEEDQRRRAIRKTCCALCGREEGVSLRCKRCKTVLYCSPSVRGCQL” was tested, and the “transcriptional activation domain activity” value was 33200. For “RTESYDHMEPVGVDPRWDAFGPFHDYLLQAFPLVHSTLSLTKVNTWGLVYVWP”, the “transcriptional activation domain activity” value was 47400. “RTFLRWTLDTLAQCTTFEVMWLILTGVIQDYIDEYKRNRTLTKLLIEALIKSY” was tested, and the “transcriptional activation domain activity” value was 55500. With “RTILLASYIFSNIFVCLIVLNDSLKILWWLGDSYWHKIWFFRIWLWANSISFL” the “transcriptional activation domain activity” value was 74800. With “RTKASGSSGEAAAASGGASSSKAEDARAEGGEEAAKPRRSSRLSAKSAGESAG” the “transcriptional activation domain activity” value was 15000. “RTKDEMKCTSCNAPTSRVCARCKHTLYCSSEHQKKHWKQHRQACVPYGAQLVK” was tested, and the “transcriptional activation domain activity” value was 50600. “RTLLVVLISMLYFLTVEMFLPVFYLFDESLYNFLSWILTAFWSRLALWVLGFY” was tested, and the “transcriptional activation domain activity” value was 56000. In the case of “RTMGKQDPYCAMRLGKEAKKTNTDRRGGQTPRWDQELRFTVHDSPDYYKLKCS”, the “transcriptional activation domain activity” value is reported as 44300. “RTPTYDRRTIIQGLQQAEMNLDNSFKRVSEMILMLMIRMHDWSTLRRRFQMDQ” was tested, and the “transcriptional activation domain activity” value was 45200. In the case of “RTSDRYLETLDALFVDKFVYAHAWTTFMSTCLKTWRRDCCSSAMLLLLHILCF”, the “transcriptional activation domain activity” value is reported as 54900. For “RTSEMIMGFFFKNIVWTFVLFWYQIFCQFNGSMMFEYVLVALYNLIFTSLPII”, the “transcriptional activation domain activity” value was 62900. “RTSRHLTLLFWSPLLFFSILLLLPIFLPLFLRFLLLWFPILLLLPLLCFLLLW” was tested, and the “transcriptional activation domain activity” value was 13000. For “RTTALGVWFLLIQSLWYFTFGALYIWFFCHTWEYLSTLLVFDYLLRFILCLMF”, the “transcriptional activation domain activity” value was 68100. “RTTALGVWFLSIQFFWYALYGALYIWFFFMPWEKLSVLLAFDYFMRLLLCFMF” was tested, and the “transcriptional activation domain activity” value was 45700. “RTTSLGVWFLLIQFLWYGAFGVLYVWFFCQTFEYFNTLLVFDYILRFILCLMF” was tested, and the “transcriptional activation domain activity” value was 51200. With “RTTSLGVWFLLIQSLWYCAFGVLYVWFFCQTFESFNTLLVLDYILRFILCLMF” the “transcriptional activation domain activity” value was 86900. In the case of “RTYVQYWIQAFPKIARFFTIFFAAMSVTRYKAFMDSPVLALNNLAKRILRMSL”, the “transcriptional activation domain activity” value is reported as 44500. With “RVEAQVRDRRVEAQVRDRRAEAQVRARDHRSKVQVRNRQSKAEAEAQVRSQAR” the “transcriptional activation domain activity” value was 33900. With “RVEEEGKSGVPAGDRFCGISLRPGILTDGEAGGVKVGKIGTGGKTARATVAES” the “transcriptional activation domain activity” value was 22900. With “RVELLLRSFKVFTLKTGEQCLDYLGDKFRVVLNLPEDWTNTAVGAWLVQKVIL” the “transcriptional activation domain activity” value was 39700. In the case of “RVFLFRLMLSLIYTFLGSLCVTGAVWAYRVNWKVNGNQFVLSWMAIWLFAHCN”, the “transcriptional activation domain activity” value is reported as 44800. For “RVFTKIRRLLIRLKKHDIHAVCAALLTYIFWPTAFLRAYCLDSIYYDPASRDK”, the “transcriptional activation domain activity” value was 54100. “RVFTVPGKCFFDALAADSTDASCTEESLKKIWNELHTTSSEIEPWSNGYIDIS” was tested, and the “transcriptional activation domain activity” value was 98000. With “RVHMLLCICLIATFVGVTVDLALEILFRLSQFSESPRFSPTGSRTLILTLPLF” the “transcriptional activation domain activity” value was 45300. With “RVHPTCLKEFGTADFICGQCNSIYRSGRFLRIARCICLMCHLLSLASTVGLIF” the “transcriptional activation domain activity” value was 57300. With “RVLETPAIFPSFLNTALFPMPFIVGLILFFFFALFPFPLPFLSPSFFPSILQY” the “transcriptional activation domain activity” value was 43200. For “RVLNLTIHCAIWVRLYASLAWQKFADTLVHLELQFFTSSVLRAIPQNVCCRHL”, the “transcriptional activation domain activity” value was 38100. In the case of “RVLVILRMWAFCYRGNGRTKYAHEMLHLLHNLICVWTKELRHIVLQNWLANPQ”, the “transcriptional activation domain activity” value is reported as 61100. With “RVPPNSSQKTGEPSSSSTKPVASSAVRNRVPPNSSQKTGEPSSSSTKPVASSA” the “transcriptional activation domain activity” value was 52900. For “RVPWSSAISKRLQTYHEMLQSFPFVWRMIKDVLGLKSCRYLLVLYLFCEAVTS”, the “transcriptional activation domain activity” value was 62000. “RVRAAERAGQQAGREGRRGRQRGEHARRGGRAAHERAAQAHHRAPVPVPVRVP” was tested, and the “transcriptional activation domain activity” value was 62200. With “RVSDYSMAQFRFLLKFLLVHGRWNYIRICKYTISTFWKELLFYLTQAMYQRWN” the “transcriptional activation domain activity” value was 28800. “RVVLRCLFLAYECIEEADVKSTLSYTIEVAFNLITSTCDYIGPVAMSHALRAG” was tested, and the “transcriptional activation domain activity” value was 53900. In the case of “RVVSAFGWKADKHLGFALLKLCLEDRRIRSPMASLMLLAYYTVLTSLCPQVLA”, the “transcriptional activation domain activity” value is reported as 60900. For “RVVVVTDAFQKMDHFYWSLQAWLMYRFDALSACSTFAMTLLALYDDLSPGLTA”, the “transcriptional activation domain activity” value was 83700. In the case of “RVVYVSCNVHTQARDVGVLVRGEVEDVAANSNNTNMSTTTKNKTGGGVRYEIE”, the “transcriptional activation domain activity” value is reported as 23600. “RVYKRDPMLYLSSGWQYQGHFVYVTRLDVIHLSSWLRVFCFQIQHFSSVWWVL” was tested, and the “transcriptional activation domain activity” value was 59000. In the case of “RWCARCMLLTATIHMGYFFSAWAPYDYIGYQLKNNKIVWKGLAAWCTLVWIVF”, the “transcriptional activation domain activity” value is reported as 47700. For “RWCARCMLLTATLHMGYFFSAWAPYDYIGYQLKNNKIVWKGLAAWCTLVWIVF”, the “transcriptional activation domain activity” value was 93300. “RWGGILNTHLCLLSTLVLCCTMLRFCINVIWTDTFVNWEMGWRTVCPWLLILL” was tested, and the “transcriptional activation domain activity” value was 44600. For “RWGLGRWWVPFQLFVIFWDLDNWPVFGLRPWVFEFMEGPLEYVLSFLVLFTAK”, the “transcriptional activation domain activity” value was 67500. In the case of “RWINSTIHNLFEVVMLPDLCGFCCFSMRFVVLLDLIGTLSLPVSFVYLVYLIY”, the “transcriptional activation domain activity” value is reported as 64400. With “RWIRVRKHMVLAATLVEPFTESVVLSIICASSLKYLFGVWLWISICVHFALWA” the “transcriptional activation domain activity” value was 48100. “RWQYATLFFSGVSGGATLALSLCVITHPSLLTRIVVVCIFLTLISAFTILPIS” was tested, and the “transcriptional activation domain activity” value was 38500. With “RWSYLRTSEMILTFFYKNIMWTLVLFWYQLFCGFSGTMMFDYSYITLYNLVFT” the “transcriptional activation domain activity” value was 63200. For “RYEAQGGGYKDTGDNKNKAKKGTPERKTKEDGKEEEEKGDKKEEAKKEEGKKE”, the “transcriptional activation domain activity” value was 22800. “RYIATGRGFATTRISFSILFSRFAGPSIYLGMRTLLMLLYVTLSFWTPYLIYF” was tested, and the “transcriptional activation domain activity” value was 54700. “RYLKCGGHVKHFFDLSRRADLSLEWLRRYPMEAVITDQIVSWLCHICLRQMRV” was tested, and the “transcriptional activation domain activity” value was 46000. For “RYLLLSIRDWPCIYIHDLFVFIVSLITDVPDDFLILNFQDLLFFFFVFVFLIF”, the “transcriptional activation domain activity” value was 66200. In the case of “RYLNITGRCRCSLQDLSFSVLLIRSLGAPLVELHVCCLYWWFGAYRLRFIFFI”, the “transcriptional activation domain activity” value is reported as 55000. With “RYLRHIKNIVFVLVLLNYWSKLYNTVLIGGPVRAVHDFKTYLIRIVFRQLRRL” the “transcriptional activation domain activity” value was 47300. “RYLYAAMNLLSIINPIFSLIQFVIACFLVAGNLSLVYVRVWGPIVLLSLFLFD” was tested, and the “transcriptional activation domain activity” value was 45800. For “RYNHLFDETLVAICVLLGRIGGRFIVDDFEVMWCHNLFRTKVVKAIVVFALAY”, the “transcriptional activation domain activity” value was 39600. With “RYPFILFPFYSLLSHFLLLLTEIALCLKYCLLLSLCSPILLFLLVFLLLAFCL” the “transcriptional activation domain activity” value was 47600. With “RYPPKHILISQSLILILLCFHLSFVWNKEFAPFNIESRTLFICFLGYLPILLL” the “transcriptional activation domain activity” value was 36900. With “RYWTFMTFLSIFLSIFACFLWIAVYSLFPTFFFDWELIILYSTMNFWATVVVV” the “transcriptional activation domain activity” value was 51700. For “SAAAAAGTGAAAAATAGGKTGETQAAGAKKLKLSEEGKGKEKAAAAAAAEDQK”, the “transcriptional activation domain activity” value was 22100. For “SAAAAAPVAAAAAPAAASSIAPAVVGGAVGAAAIGGGAAIAASSDKAAAAAAA”, the “transcriptional activation domain activity” value was 37700. In the case of “SAASRVAEEKSGDDEAAAAPGTGATPEGVKRKTTRGGKKNRSKKEGGAAAAAA”, the “transcriptional activation domain activity” value is reported as under 6570. With “SADDSAGEARQREKSEESGTRRSRKSHDRESKEGAEGADEAESWERSSKKKSR” the “transcriptional activation domain activity” value was 29600. For “SADIERRHHKKNHKGGANAGNAAGNNNNAGGNAGNATAAAANRRDVVEDLQSR”, the “transcriptional activation domain activity” value was 13900. For “SADTQKEEGKRAKVEKNRRGKRDGHKAGRFSGGRRKERGEASTQAGAAAAGAN”, the “transcriptional activation domain activity” value was 37500. With “SAEFRANEFARHPLLDALLLSLMVDGSSTLLEIEVATLVCLLRQFAIHAPDTL” the “transcriptional activation domain activity” value was 51800. “SAEHQTEAYESDGGRQCVRLLLTSYCSPILIVALHPVLPGRFLCVVKLATQKS” was tested, and the “transcriptional activation domain activity” value was 39900. “SAFDLADAIEKQSVSKLEKFSTTALSLELNCLVCLIKVLLKMYLSSDPAFEPY” was tested, and the “transcriptional activation domain activity” value was 42200. For “SAFGGGGGASAFGSGTSAFGSGANTGSAFGGTASTPSTASAFGGGSAFGGAGS”, the “transcriptional activation domain activity” value was 32700. “SAFGSSANAPTSGGFGAFGQPVAAAATTSAFGSTTPFGAAAPSPAAPAAAASP” was tested, and the “transcriptional activation domain activity” value was 25700. In the case of “SAGTAQAGKKPRILLKVNGRSYQRVDCVGRGGSGKVYKVTAENGKMFAMKRVS”, the “transcriptional activation domain activity” value is reported as 45100. “SAGYYSRVSFFFFSNYHLIILHVFFFFFFFVYWVYFSSSDFFFLLGLTIFCFF” was tested, and the “transcriptional activation domain activity” value was 57900. “SAHWILKAYYTDRRVLFGFCFGNEAFFMLIYLMEYLDGFCFYFVSFLALLAFP” was tested, and the “transcriptional activation domain activity” value was 57200. “SAKEEPGAAETDADTDPEPAAGKKRKRQEDKGEAQEGGSGKKSVGGKKAKQAE” was tested, and the “transcriptional activation domain activity” value was 19200. In the case of “SAKSLRLTVDEVKMLHRPALWYLIVGLVDTVAAARLRYFSFILHRPPLRQTLS”, the “transcriptional activation domain activity” value is reported as 47800. With “SALFCKIWTIIQAYYIVISFISIHNCMPCTMPFHHECVGSIPLWLWVTWLPSI” the “transcriptional activation domain activity” value was 40400. In the case of “SALRYYFKVELYNLPARQWFERCFFTPLEVFNTAWLAYILLAQTTGSMVNCAC”, the “transcriptional activation domain activity” value is reported as 38200. “SAPAPVRVVSLTKEEPVPEVKEEVKEEVKPAPAAAAPKPKPAAAKKETPAAVK” was tested, and the “transcriptional activation domain activity” value was 13400. In the case of “SAPNDSTTAPTNASNIANTASVNKQMYFMNMNMNNNPHALNDPSILETLSPFF”, the “transcriptional activation domain activity” value is reported as 71400. For “SASAAAKPAAAPLKKSTSGSLASKPAMSSTKPAAAPAAAPARRASVVPAKSSA”, the “transcriptional activation domain activity” value was 33900. In the case of “SASASAAPAASTAGSADKSGGAQEKHRGGRRRGGRGRGDKESGGKEGGSKNTE”, the “transcriptional activation domain activity” value is reported as 34400.
